According to the nanobody polyreactivity screen of Harvey et al. (2022):

Experiment: yeast display, Sf9 membrane polyspecificity reagent, FACS + sequencing; frameworks hold sequencing errors
Outline: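 Using colony PCR, genes from sorted yeast display clones were amplified, then sequenced on MiSeq at 2 × 250 and filtered by CDR length. The clones had been stained with 10% biotinylated, detergent-solubilized Sf9 membrane reagent for 1 hour at 4 °C and sorted by FACS into low and high (top ~1%) gates on anti-HA and streptavidin fluorescence. Polyreactivity labels come from the gate of origin.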

Sequence | polyreactivity (PSR sort gate)
QDQLVESGGGLVQAGGSLRLSCAASGFTFGYYVMGWYRQAPGKERELVAAITQRGGSTYADSVKGRFTISRDNAKNTVYLQMNSLKPEDTAVYYCAAPIYNGYASWQVYYWGQGTQVTVSS | high polyreactivity
QDQLVESGGGLVQAGGSLRLSCAASGFTFQDYAMGWYRPAPGKERELVAAISTSDGNTYYADSVKGRFTISRDNAKNTVYLQMNSLKPEDTAVYYCAAQRNYGWVKFYYWGQGTQVTVSS | high polyreactivity
QDQLVESGGGLVQAGGSLRLSCAASGFTFSHNVMGWSRQAPGKERELVAAITWSGDGTYYADSVKGRFTISRDNAKKSVYFQMNSLKTEDTAVYYCNARYGKEYDYWGQGTQVTVSS | low polyreactivity
QDQLVESGGGLVQAGGSLRLSCAASGFTFYFYAMGWYRQAPGKERELVDAISRSGSRTYYADSVKGRFTISRDNAKNSVYLQMNILKPEDTAVYYCARVRPRGLYFVLHYDYWGQGTQVTVSS | high polyreactivity
QDQLVESGGGLVQAGGSLRLSCAASGFTFYYNAMVLYRQAPGKERELVASISSNGTSTYYADSVKGRFTISLDNEKNTVYLHMNILKPEDTAVHYCNVDIFDPRTYVYWGQGTQVTVSS | low polyreactivity
QDQLVESGGGLVQAGGSLRLSCAASGFTIQAYAMGWYRQAPGKERELVATISKSGGRTYYADSVKGRFTISRDNAKNTVYLQMNSLKPEDTAVYYCNKRVSGRHYDYWGQGTQVTVSS | high polyreactivity
QDQLVESGGGLVQAGGSLRLSCAASGGIFLGNAMGWYRQAPGKERELVAAISFSGGSTYYADSVKGRFTISRDNAKNTVYLQMNSLKPEDTAVYYCAAAWNRGKYNYYYWGQGTQVTVSS | high polyreactivity
QDQLVESGGGLVQAGGSLRLSCAASGGNFYGNAMGWYRQAPGKERELVATISRRGGSTYYADSVKGRFTISRDNAKNSVYLQMNSLKPEDTAVYYCAADARSSYYTKRFDYWGQGTQVTVSS | high polyreactivity
QDQLVESGGGLVQAGGSLRLSCAASGGTFGGYAMGWYRQAPGKERELVAAITYSGGSTYYADSVKGRFTISRDNAKNTVYLQMNSLKPEDTAVYYCAQYHYRYYYWGQGTQVTVSS | high polyreactivity
QDQLVESGGGLVQAGGSLRLSCAASGIIFEYYAMGWYRQAPGKEREFVASITSSDGSTYYADSVKGRFTISRDNAKNTVYLQMNILKPEDTAVYYCAAAGDYVVPISSTAGFGGDYWGQGTQVTVSS | low polyreactivity
QDQLVESGGGLVQAGGSLRLSCAASGIIFYGYGMGWYRPAPGKERELVAAISRSGGSTYYADSVKGRFTISRDNAKNTVYLQMNSLKPEDTAVYSCAASGVTYDYWGQGTQVTVSS | high polyreactivity
QDQLVESGGGLVQAGGSLRLSCAASGINFPLYAMGWYRQAAGKERELVAAISSSDGDTFYADSVKWRFTISRDNAKNTVYLQMNSLKPYDTAVYYCAAVAPTELLYTYGYYPYYYWGQGTQVTVSS | high polyreactivity
QDQLVESGGGLVQAGGSLRLSCAASGITFAGYARGWYRQAPGKERELVAAITGRGGSTYYADSVKGRFTISRDNAKNTVYLQMNSLKPEDTAVYYCAARSSKTGTGVRFGYWGQGTQVTVSS | high polyreactivity
QDQLVESGGGLVQAGGSLRLSCAASGITFAYYAMGWYRQAPGQERDFVAAINGGGSTNYADSVKGRFTISRDNAKNTVYLQMKSLKAEDTAVYYCNARRAYRAWDYPYDYWGQGTQVTVSS | high polyreactivity
QDQLVESGGGLVQAGGSLRLSCAASGITFPGYPMGWYRHAPGKEREFVAAISWGGVSTYYADSVMGRFTISRDNAKNTVYLQMNSLKPEDTAVYYCNAEYPWSVVGYDYWGQGTQVTVSS | low polyreactivity
QDQLVESGGGLVQAGGSLRLSCAASGITLQLNAMGWYIQAPGKEREFVARISISGGRTYYADSVKGRFTISRDNAKNTVYLQMNSLKPEDTAVYYCAARVGRGYREYGYWGQGTQVTVSS | high polyreactivity
QDQLVESGGGLVQAGGSLRLSCAASGLTFSLYAMGWYRQAPGKERELVAAISWTGGSTYYADSVKGRFTISRDTPKNTVYLQMNSLKPEDTAVYYCNARYTLFARYGYDYWGQGTQVTVSS | low polyreactivity
QDQLVESGGGLVQAGGSLRLSCAASGLTLYKNGLGWYRQAHGKEMELVAVISRSGGRTYYADSVKGRFTISRDNAKYTVYLQMNSLKPEDTAVYYCAARQYGPSYTYYYWGQGTQVTVSS | high polyreactivity
QDQLVESGGGLVQAGGSLRLSCAASGNIFTSNAMGWYRQAPGKERELVAANTSGGSTYYADSVKGRFTISRDNAKNTVYLQMYSLKPEDTAVYFCASLRRPHLRPYYYWGQGTQGTVSS | high polyreactivity
QDQLVESGGGLVQAGGSLRLSCAASGRIFAGNARGWYRQAPGKERELVATITRGGSTNYADSVKRPFTISRDNAKNTVYLQMNSLNPEDTAVYYCNADIRRHGGYAHVYWGQGTQVTVSS | low polyreactivity
QDQLVESGGGLVQAGGSLRLSCAASGRIFDIYAMGWYRQAPGKERELVAAITWRGGSTYYADSVKGRFTISRDTAKNTLYLQMNSLKPEDTAVYYCAVDFITPRGSYYWGQGTQVTVSS | low polyreactivity

Sequence | polyreactivity (PSR sort gate)
QDQLVESGGGLVQAGGSLRLSCAASGRIFDLYAMGWYRQAPGKERELVATISTRGGRTYYADSVKGRFTISRDNAKNTVYLQMKRLKPEDTAVYYWNARYLGYGWFDYWGQGTQVTVSS | low polyreactivity
QDQLVESGGGLVQAGGSLRLSCAASGRIFGINAMGWYRQAPGKERELVAAISSGGSTYYADSVKGRFTISRDNAKNTVYLQMNILKPEDTAVYYCAKGPSWKYYSYTLDYWGKGTQVTVSS | low polyreactivity
QDQLVESGGGLVQAGGSLRLSCAASGRIFGPYTMGWYRQAPGKEREFVAAISRSGDSTYYADSVKGRFTISRDNAKNTVYLQMNSLKPEDSAVYYCAAKYGTRLSAYYYWGQGTLVTVSS | high polyreactivity
QDQLVESGGGLVQAGGSLRLSCAASGRIFNANTMGWYRQAPGKERELVARITWSGGGTYYADSVKGRFTISRDNAKNTVYLQMNCLKPEDTAVYYCAARLLIRYYYWGHGTQVTVSS | high polyreactivity
QDQLVESGGGLVQAGGSLRLSCAASGRIFPLYVMGWYRQAPGKERELVAAISRSGSRTYYADSVKGRFTISRDNAKNTVYLQMNSLKPEDTAVYYCAAVTDGTTRYDGDYWGQGTQVTVSS | high polyreactivity
QDQLVESGGGLVQAGGSLRLSCAASGRIFQANAMGWYRQAPGKERELVASISSGGSTNYADSVKGRFTISRDNAKNTVYLQMNRLKPEDTAVYYCAARHPSSAYWVGYYWYDYWGQGTQVTVSS | low polyreactivity
QDQLVESGGGLVQAGGSLRLSCAASGRIFRLNAMGWSRQAPWKERELVAAITRGGNTYYADSVKGRFTISRDNAKNTVYLQMNSLKPEDTAVYYCAATSSRVSGYRYDYWGQGTQVTVSS | high polyreactivity
QDQLVESGGGLVQAGGSLRLSCAASGRIFTRYAMGWYRQAPGKEREFVAAISVRGGTTYYADSVKGRFTISRDNAKNTVYLQMNSLKPEDSAVYYCAARKISKYDYWGQGTQVTVSS | high polyreactivity
QDQLVESGGGLVQAGGSLRLSCAASGRIFYTNAMGWYRQAPGKERQLVATISSTGSTNYADSVKGRFTISRDNAKNTVYLQMNSLKPEDTAVYYCATQVGWRTYSHRNRGYYYWGQGTQVTVSS | high polyreactivity
QDQLVESGGGLVQAGGSLRLSCAASGRIFYTNAMGWYRQAPGQERDLVAVISWGGDTTYYADSVKGRFTISRDNAKNTVYLQMNSLKPEDTAVYYCNGDWGPTYEIYDSWGQGTQVTVSS | low polyreactivity
QDQLVESGGGLVQAGGSLRLSCAASGRIFYVYAMGWYRQAPGKEREFVASISWSGGSTYYADSVKGRFTISRDNAKNTFYLQLNSLKPEDTSVYYCNARAFTHRYDYWGQGTQVTVSS | low polyreactivity
QDQLVESGGGLVQAGGSLRLSCAASGRIFYYNAIGWYRQAPGKEMELVATITRAGGTYYADSVKGRFTISRDNAKNTVYLQMNSLKPEDTAVYYCAKRHPIVDDYKGDYWGQGTQVTVSS | low polyreactivity
QDQLVESGGGLVQAGGSLRLSCAASGRIISANAMGWYRQAPGKERELVATISTGGGRTYYADSVKGRFTISRDNAKNTVYLQMNSLKPEDTAVYYCNATRNYARVRYYYWGQGTQVTVSS | high polyreactivity
QDQLVESGGGLVQAGGSLRLSCAASGRTFADYAMGWYRQAPGKERELVAAISWRGGSTYYADSVKGRFTISRDNAKNTVYLQLNSLNPEDTAVYYCNKAYPADYDYWGQGTQVTVSS | low polyreactivity
QDQLVESGGGLVQAGGSLRLSCAASGRTFDTNAMGWYRQAPGKERELVASISWSTGSTYYADSVKGRFTISRDNAKNTVYLQMNSLKPEDTAVYYCAARKWFRYKGRSRDYWGQGTQVTVSS | high polyreactivity
QDQLVESGGGLVQAGGSLRLSCAASGRTFGPNAMGWYRQAPGKERELVAAITGGGSTYYADSVKGRFTISRDNAKNTVYLQMNSLKPEDTAVYYCSNRGQGFHFGRDYWGQGTQVTVSS | low polyreactivity
QDQLVESGGGLVQAGGSLRLSCAASGRTFGPYAMGWYRQAPGKEREFVAAITWRGGRTNYADSVKGRFTISRDNAKNTVYLQMNSLKPEDTAVYYCNAVISPHQWIRGGDSWGQGTQVTVSS | low polyreactivity
QDQLVESGGGLVQAGGSLRLSCAASGRTFKRYAMGWYRQAPGKERELVAAITFSGGSTYYADSVKGRFTISRDNAKNTVYLQMNSLKPEDTAVYYCAAGYRWTGGLKYDFWGQGTQVTVSS | high polyreactivity
QDQLVESGGGLVQAGGSLRLSCAASGRTFNPYAMGSYRQAPGKERELVAAIRWRGTRTYYADSVKGRFTISRDNAKNTVYLQMNSLKPEDTAVYYCAADDPHSREMDYWGQGTQVTVSS | high polyreactivity
QDQLVESGGGLVQAGGSLRLSCAASGRTFRAYAMGWSRQAPGKERELVASISRRGGSTYYADSVKGRFTISRDNAKNTDYLQMNSLNPEDTAVYYCAASDKYLQYDDWGQGTEVTVSS | high polyreactivity
